In article PMC10936184:

Molecular target: MipA-His6 (Pseudomonas aeruginosa)
Assay: nano-DSF; isothermal analysis with FoldAffinity: MipA-His6 (5 µM) incubated for 2 h at room temperature with PMB or PME from 76 nM up to 2.5 mM; one site model; fits at 51°C, 52°C and 53°C

| Substance | Kd |
| --- | --- |
| polymyxin B (peptide) | 8.4 to 10 µM |
| polymyxin E (peptide) | 2.8 to 3.4 µM |
